From patent US20250319216A1, “RADIOPHARMCEUTICAL COMPLEXES TARGETING PROSTATE-SPECIFIC MEMBRANE ANTIGEN AND ITS COMBINATIONS” (Bayer Aktiengesellschaft, priority 2022, published 2025)
Marks after values point to notes of the source that are not given here.

Experiments:
[1] = Radiochemical purity (RCP) of Pelgifatamab TACs by iTLC; format: physicochemical; conditions: for RCP (radiochemical purity): iTLC after Ac-225 labeling at 2 MBq/mg, macropa at room temperature, DOTA at 60° C., one hour
Procedure: The mixture was incubated for one hour at room temperature for macropa-Pelgifatamab while the two DOTA-Pelgifatamab ACCs were incubated for one hour at 60° C. on a heating block. The RCP of the TACs was measured by instant thin layer chromatography using citrate buffer for elution, three replicates for each sample. […] The measurement of radioactivity was done with a Digital Gamma-Ray Spectrometer (DSPEC-50, Ortec). The activities were measured at least 6 hours after radiolabeling to allow daughter nuclides to be in equilibrium with Ac-225. […] Pelgifatamab-macropa and the PSMA binding antibody J591 conjugated with DOTA were both labeled with actinium-225. Labeling was performed at room temperature. J591-DOTA was also labeled at 60° C. Radiochemical purity was determined by instant thin-layer chromatography (iTLC). Labeled and free actinium-225 were counted in a germanium detector using actinium-225 specific energy lines. Actinium-225-labeling of pelgifatamab was efficient at room temperature as compared with actinium-225-labeling of the murine monoclonal PSMA antibody J591 (225Ac-J591, FIG. 8).

[2] = Size exclusion chromatography (SEC-UV) of Pelgifatamab TACs; format: physicochemical; conditions: SEC-UV of TAC after radiolabeling
Procedure: Purity of the TACs were determined by SEC-UV. The method separates higher aggregate, dimer and fragments from the ACC monomer. The separation was done using a Acquity UPLC Protein BEH SEC, 1.7 μm, 200 Å, 4.6×300 mm column operated at 30° C. The mobile phase was 170 mM Ammonium acetate and 300 mM NaCl containing 10% 2-propanol and 0.1 mM DCTA. The flowrate was 0.3 mL/min, and the ACCs were detected at UV 280 nm. The analysis was performed on an Agilent 1200 series HPLC with 35 μL injections.

[3] = tested on: PSMA-expressing prostate cancer xenograft model MDA PCa 2b; conditions: 72-504 hours
Procedure: Biodistribution of Ac-225-macropa-Pelgifatamab was investigated in the PSMA-expressing prostate cancer xenograft model MDA PCa 2b. Female RJ: NMRI-Foxn1nu/nu mice were implanted with testosterone pellets subcutaneously and were inoculated with 1×10^6 MDA PCa 2b cells on the right flank. Animals were pre-treated with 200 μg/mouse unspecific IgG2a antibody 24 hours prior to hot dosing. Animals were treated with 300 kBq/kg Ac-225-macropa-Pelgifatamab IV at a total protein dose of 0.75 mg/kg. In a separate in vivo study the xenograft model MDA PCa 2b was treated with 250 kBq/kg Ac-225-DOTA-Pelgifatamab at a protein dose of 0.14 mg/kg. In both studies, animals were sacrificed 72, 168, 336, and 504 hours post treatment and 225Ac in blood, tumor, liver, kidney, spleen and femur was determined.

[4] = tested on: C4-2 prostate cancer cells xenograft; experiment: In vivo efficacy study in C4-2 xenograft; parameters: species or system mice; conditions: single dose IV 300 kBq/kg, total antibody dose 0.14 mg/kg
Procedure: The compounds Ac-225-macropa-Pelgifatamab, Ac-225-DOTA-Pelgifatamab and isotype-macropa were labeled with 225Ac. Mice xenografted with C4-2 prostate cancer cells were treated with a single dose IV of 300 kBq/kg with a total antibody dose of 0.14 mg/kg. […] Body weight loss was less than 10% for all targeted treatment groups. Effects on the hematopoietic system were determined by WBC counts at the end of the experiment (FIG. 16 (C)).

[5] = tested on: LNCaP prostate cancer model; experiment: In vivo antitumor efficacy in LNCaP model; parameters: species or system mice; conditions: total antibody dose 0.75 mg/kg
Procedure: Antitumor efficacy of 225Ac-pelgifatamab was assessed in the LNCaP prostate cancer model: Male SCID mice (6 weeks, 22 g, Janvier Labs) were implanted s.c. with testosterone pellets (12.5 mg, 4 mm) and 1-3 days later, inoculated s.c. with 5×10^6 LNCaP cells. When the tumors reached an average size of 160 mm^3, mice were randomized (n=10 mice/group), and two days later, treated with vehicle or a single i.v. dose of ^225Ac-pelgifatamab (70, 125, or 250 kBq/kg, total antibody dose 0.75 mg/kg). The study was terminated on day 112 after tumor cell inoculation.

KUCaP-1 tumors = experiment: In vivo antitumor efficacy in KUCaP-1 model; parameters: species or system mice
Excerpt: In a KUCaP-1 efficacy study, male scid/scid mice (8 weeks, 22 g, Janvier Labs) were implanted s.c. with 5×5×5 mm KUCaP-1 tumor fragments. When the tumors reached an average size of 220 mm^3, mice were randomized (n=9-10 mice/group), and the next day, treated with vehicle or a single i.v. injection of isotype control (300 kBq/kg, […] mg/kg). In addition, for one treatment group, tumors were allowed to reach a size of 470 mm^3, before treatment with a single dose of 300 kBq/kg ^225Ac-pelgi. The study was terminated on day 72 after tumor cell inoculation.

CDKN1A = experiment: Gene expression by RT-qPCR in 22Rv1 cells; format: cell-based; conditions: 24 or 48 h
XRCC2 = experiment: Gene expression by RT-qPCR in 22Rv1 cells; format: cell-based; conditions: 24 or 48 h
22Rv1 tumors = experiment: In vivo efficacy in 22Rv1 prostate cancer model; parameters: species or system mice; conditions: 22Rv1, day 16
Procedure: The in vivo antitumor efficacy of 225Ac-pelgi in combination with darolutamide was evaluated in the androgen-independent prostate cancer model 22Rv1.

LNCaP cells = conditions: 5 days
Procedure: (§2) Cells were treated for 5 days and subsequentially cell viability was determined using CellTiterGlo (Promega).

C4-2 cells = conditions: 5 days
Procedure: as §2

22Rv1 cells = 22Rv1 cells (printed 22R1), 5 days
Procedure: as §2

PC-3 cells = conditions: PSMA negative PC-3 cells, 5 days
Procedure: as §2

DU-145 cells = conditions: PSMA negative DU-145 cells, 5 days
Procedure: as §2

[6] = tested on: PSMA expression in 22Rv1 cells; experiment: PSMA protein expression by flow cytometry; format: cell-based; conditions: androgen-independent 22Rv1 cells, 0.08-5 μM darolutamide for 7 days
Procedure: (§1) The effect of darolutamide and 225Ac-pelgifatamab on PSMA mRNA and protein expression in vitro was studied in VCaP and 22Rv1 prostate cancer cells. To assess PSMA protein expression, VCaP and 22Rv1 cells were treated with 0.08-5 μM darolutamide for 7 days and PSMA expression was determined by flow cytometry using the murine PSMA-specific monoclonal antibody (mAb) J591 (prepared in-house). To assess FOLH1 gene expression, 22Rv1 cells were treated with 2 μM darolutamide and/or 0.15 kBq/mL 225Ac-pelgifatamab for 24 or 48 h. RNA was extracted with the RNeasy Plus Mini Kit (Qiagen), transcribed to cDNA using SuperScript IV VILO Master Mix (Invitrogen), and analyzed by qPCR.

[7] = tested on: PSMA expression in VCaP cells; experiment: PSMA protein expression by flow cytometry; format: cell-based; conditions: androgen-dependent VCaP cells, 0.08-5 μM darolutamide for 7 days
Procedure: as §1

[8] = tested on: PSMA expression in 22Rv1 tumors; experiment: In vivo PSMA protein expression in 22Rv1 tumors by flow cytometry; parameters: species or system mice; conditions: isolated 22Rv1 tumors, darolutamide 100 mg/kg BID p.o. for 18 days
Procedure: In vivo expression of PSMA protein was evaluated in 22Rv1 prostate tumor-bearing male nude (nu/nu) mice treated with vehicle or darolutamide (100 mg/kg, BID, p.o) for 18 days. 22Rv1 tumors were extracted (n=2) and dissociated tumor cells were analyzed by flow cytometry using the J591 antibody.

[9] = 300 kBq/kg IV, 0.75 mg/kg total protein

Ac-225-DOTA-Pelgifatamab CAR 12.7
RCP (radiochemical purity) [1]: 99.5% | Aggregate [2]: 30.5 Area % (UV) | Dimer [2]: 4.8 Area % (UV) | Monomer [2]: 64.7 Area % (UV)

Ac-225-DOTA-Pelgifatamab CAR 5.7
RCP (radiochemical purity) [1]: 99.2% | Aggregate [2]: 18.4 Area % (UV) | Dimer [2]: 3.0 Area % (UV) | Monomer [2]: 78.6 Area % (UV)

Ac-225-macropa-Pelgifatamab
RCP (radiochemical purity) [1]: 99.9% | radiochemical purity ([1]; iTLC after radiolabeling at room temperature (FIG. 8)): 100% | Dimer [2]: 0.5 Area % (UV) | Monomer [2]: 99.5 Area % (UV) | radioactivity in the liver compared with 225Ac-DOTA-Pelgifatamab [3]: lower and over time decreasing radioactivity | uptake in the spleen compared with 225Ac-DOTA-Pelgifatamab [3]: less uptake | accumulation in normal organs [3, 9]: generally low and transient | tumor accumulation of 225Ac [3, 9]: strong and persistent tumor accumulation | clearance from the bone compared with 225Ac-DOTA-Pelgifatamab ([3]; femur): improved clearance | antitumor activity compared with Ac-225-DOTA-Pelgifatamab [4]: higher antitumor activity | T/Cvolume (treatment/control) ratio ([5]; 70 kBq/kg single dose i.v.): 0.00 | T/Cvolume (treatment/control) ratio ([5]; 125 kBq/kg single dose i.v.): 0.00 | T/Cvolume (treatment/control) ratio ([5]; 250 kBq/kg single dose i.v.): 0.00 | T/Cvolume ratio (KUCaP-1 tumors; 75 kBq/kg single dose): 0.55 | T/Cvolume ratio (KUCaP-1 tumors; 150 kBq/kg single dose): 0.44 | T/Cvolume ratio (KUCaP-1 tumors; 300 kBq/kg single dose): 0.26 | effect on large tumors (KUCaP-1 tumors; single dose 300 kBq/kg, tumors 470 mm^3 at treatment start): induced tumor regression | RNA expression of CDKN1A (CDKN1A): increased | expression of XRCC2 (XRCC2): decreased | T/C (22Rv1 tumors; 75 kBq/kg, single dose, i.v.): 0.71 | T/C (22Rv1 tumors; 300 kBq/kg, single dose, i.v.): 0.41 *** | cytotoxicity (LNCaP cells): Strong cytotoxicity | cytotoxicity (C4-2 cells): Strong cytotoxicity | cytotoxicity (22Rv1 cells): Strong cytotoxicity | cytotoxicity (PC-3 cells): little cytotoxicity | cytotoxicity (DU-145 cells): little cytotoxicity

CC(O)c1cc(C(=O)N[C@@H](C)Cn2ccc(-c3ccc(C#N)c(Cl)c3)n2)[nH]n1 (some centres unmarked) [Darolutamide, darolutamide]
induction of PSMA expression [6]: > 2 fold | induction of PSMA expression [7]: more than 10 fold | T/C (22Rv1 tumors; 100 mg/kg, BID, p.o.): 0.78 | increase in PSMA expression compared with vehicle [8]: 50 fold
